# T1: DFNB31_1, Q9P202
# T1 sequence (Q9P202 135-233, limits assumed, looked up): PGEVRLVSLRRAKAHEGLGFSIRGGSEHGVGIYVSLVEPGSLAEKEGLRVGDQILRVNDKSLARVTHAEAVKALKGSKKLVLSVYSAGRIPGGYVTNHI
# T2: DLG3_1, Q92796
# T2 sequence (Q92796 125-227, limits assumed, looked up): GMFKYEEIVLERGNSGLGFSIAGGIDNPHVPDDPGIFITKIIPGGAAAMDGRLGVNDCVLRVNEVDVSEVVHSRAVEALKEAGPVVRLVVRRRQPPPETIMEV
# T3: DLG3_2, Q92796
# T3 sequence (Q92796 221-321, limits assumed, looked up): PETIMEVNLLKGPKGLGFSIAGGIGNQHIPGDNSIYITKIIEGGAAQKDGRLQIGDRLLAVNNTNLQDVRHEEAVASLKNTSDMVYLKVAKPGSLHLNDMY
# T4: GRIP1_2, Q9Y3R0
# T4 sequence (Q9Y3R0 145-248, limits assumed, looked up): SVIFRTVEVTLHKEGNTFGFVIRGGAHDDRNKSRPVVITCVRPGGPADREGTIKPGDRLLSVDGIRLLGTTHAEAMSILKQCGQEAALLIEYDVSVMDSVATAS
# T5: GRIP1_4, Q9Y3R0
# T5 sequence (Q9Y3R0 467-571, limits assumed, looked up): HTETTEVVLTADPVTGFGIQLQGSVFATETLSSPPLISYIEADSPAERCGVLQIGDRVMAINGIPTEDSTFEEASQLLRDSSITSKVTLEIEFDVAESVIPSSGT
# T6: HTRA3, P83110
# T6 sequence (P83110 354-453, limits assumed, looked up): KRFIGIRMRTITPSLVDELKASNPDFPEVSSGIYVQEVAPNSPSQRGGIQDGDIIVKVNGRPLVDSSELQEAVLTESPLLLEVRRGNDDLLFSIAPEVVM
# T7: LIN7B, Q9HAP6
# T7 sequence (Q9HAP6 88-185, limits assumed, looked up): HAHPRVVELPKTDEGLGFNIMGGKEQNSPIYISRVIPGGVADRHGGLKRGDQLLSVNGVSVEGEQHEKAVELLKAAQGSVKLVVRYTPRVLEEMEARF
# T8: MPDZ_10, O75970
# T8 sequence (O75970 1624-1722, limits assumed, looked up): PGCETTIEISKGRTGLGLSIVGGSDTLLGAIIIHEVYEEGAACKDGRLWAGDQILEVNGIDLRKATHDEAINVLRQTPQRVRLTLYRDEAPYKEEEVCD
# T9: PARD3B_1, Q8TEW8
# T9 sequence (Q8TEW8 196-299, limits assumed, looked up): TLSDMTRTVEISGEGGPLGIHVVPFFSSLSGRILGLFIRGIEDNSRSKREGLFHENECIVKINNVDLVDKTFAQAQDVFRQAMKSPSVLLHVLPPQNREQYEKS
# T10: PTPN13_1, Q12923
# T10 sequence (Q12923 1088-1188, limits assumed, looked up): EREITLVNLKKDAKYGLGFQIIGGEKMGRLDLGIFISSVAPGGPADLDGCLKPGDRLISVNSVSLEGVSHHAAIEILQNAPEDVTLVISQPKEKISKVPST
# T11: RHPN1, Q8TCX5
# T11 sequence (Q8TCX5 508-602, limits assumed, looked up): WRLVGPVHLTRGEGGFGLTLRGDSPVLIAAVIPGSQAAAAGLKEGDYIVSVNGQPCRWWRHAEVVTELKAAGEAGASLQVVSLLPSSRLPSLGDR
# T12: SYNJ2BP, P57105
# T12 sequence (P57105 8-110, limits assumed, looked up): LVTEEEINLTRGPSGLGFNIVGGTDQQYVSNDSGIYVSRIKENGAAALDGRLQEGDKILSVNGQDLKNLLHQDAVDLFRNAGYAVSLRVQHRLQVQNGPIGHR
# Molecular target: T1, DFNB31_1, Q9P202
# Assay: holdup assay
# Set-up: key: below the threshold = too weak to quantify, mostly under pKd 3.1 to 4
# Conditions: plain residues with an end cap or a label only (N-terminal biotin on a linker: ado-ado)
row,Binder,pKd
1,"PKRSFIESNV [TANC1, Q9C0D5]",3.83
2,"IPLDGETEEL [MYOZ1, Q9NP98]",below the threshold

# Molecular target: DLG1_3, Q12959
# Assay: holdup assay
# Set-up: key: below the threshold = too weak to quantify, mostly under pKd 3.1 to 4
# Conditions: plain residues with an end cap or a label only (N-terminal biotin on a linker: ado-ado)
# Chain of DLG1_3, Q12959 (Q12959 457-571): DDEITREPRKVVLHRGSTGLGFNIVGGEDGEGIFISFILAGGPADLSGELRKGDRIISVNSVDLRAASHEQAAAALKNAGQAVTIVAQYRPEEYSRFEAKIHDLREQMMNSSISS
row,Binder,pKd
1,"PKRSFIESNV [TANC1, Q9C0D5]",4.32
2,"IPLDGETEEL [MYOZ1, Q9NP98]",below the threshold

# Molecular target: T2, DLG3_1, Q92796
# Assay: holdup assay
# Set-up: key: below the threshold = too weak to quantify, mostly under pKd 3.1 to 4
# Conditions: plain residues with an end cap or a label only (N-terminal biotin on a linker: ado-ado)
row,Binder,pKd
1,"PKRSFIESNV [TANC1, Q9C0D5]",4.15
2,"IPLDGETEEL [MYOZ1, Q9NP98]",below the threshold

# Molecular target: T3, DLG3_2, Q92796
# Assay: holdup assay
# Set-up: key: below the threshold = too weak to quantify, mostly under pKd 3.1 to 4
# Conditions: plain residues with an end cap or a label only (N-terminal biotin on a linker: ado-ado)
row,Binder,pKd
1,"PKRSFIESNV [TANC1, Q9C0D5]",4.77
2,"IPLDGETEEL [MYOZ1, Q9NP98]",below the threshold

# Molecular target: DLG4_1, P78352
# Assay: holdup assay
# Set-up: key: below the threshold = too weak to quantify, mostly under pKd 3.1 to 4
# Conditions: plain residues with an end cap or a label only (N-terminal biotin on a linker: ado-ado)
# Chain of DLG4_1, P78352 (P78352 62-152): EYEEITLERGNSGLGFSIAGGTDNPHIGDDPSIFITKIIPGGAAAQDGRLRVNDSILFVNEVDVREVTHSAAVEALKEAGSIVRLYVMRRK
row,Binder,pKd
1,"PKRSFIESNV [TANC1, Q9C0D5]",4.73
2,"IPLDGETEEL [MYOZ1, Q9NP98]",below the threshold

# Molecular target: GORASP2, Q9H8Y8
# Assay: holdup assay
# Set-up: key: below the threshold = too weak to quantify, mostly under pKd 3.1 to 4
# Conditions: plain residues with an end cap or a label only (N-terminal biotin on a linker: ado-ado)
row,Binder,pKd
1,"PKRSFIESNV [TANC1, Q9C0D5]",4.06
2,"IPLDGETEEL [MYOZ1, Q9NP98]",below the threshold

# Molecular target: T4, GRIP1_2, Q9Y3R0
# Assay: holdup assay
# Set-up: key: below the threshold = too weak to quantify, mostly under pKd 3.1 to 4
# Conditions: plain residues with an end cap or a label only (N-terminal biotin on a linker: ado-ado)
row,Binder,pKd
1,"PKRSFIESNV [TANC1, Q9C0D5]",below the threshold
2,"IPLDGETEEL [MYOZ1, Q9NP98]",below the threshold

# Molecular target: T5, GRIP1_4, Q9Y3R0
# Assay: holdup assay
# Set-up: key: below the threshold = too weak to quantify, mostly under pKd 3.1 to 4
# Conditions: plain residues with an end cap or a label only (N-terminal biotin on a linker: ado-ado)
row,Binder,pKd
1,"PKRSFIESNV [TANC1, Q9C0D5]",below the threshold
2,"IPLDGETEEL [MYOZ1, Q9NP98]",below the threshold

# Molecular target: HTRA1, Q92743
# Assay: holdup assay
# Set-up: key: below the threshold = too weak to quantify, mostly under pKd 3.1 to 4
# Conditions: plain residues with an end cap or a label only (N-terminal biotin on a linker: ado-ado)
# Chain of HTRA1, Q92743 (Q92743 360-477): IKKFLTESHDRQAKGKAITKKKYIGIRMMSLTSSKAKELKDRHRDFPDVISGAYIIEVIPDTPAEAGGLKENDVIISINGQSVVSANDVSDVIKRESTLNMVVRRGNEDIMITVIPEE
row,Binder,pKd
1,"PKRSFIESNV [TANC1, Q9C0D5]",below the threshold
2,"IPLDGETEEL [MYOZ1, Q9NP98]",3.99

# Molecular target: T6, HTRA3, P83110
# Assay: holdup assay
# Set-up: key: below the threshold = too weak to quantify, mostly under pKd 3.1 to 4
# Conditions: plain residues with an end cap or a label only (N-terminal biotin on a linker: ado-ado)
row,Binder,pKd
1,"PKRSFIESNV [TANC1, Q9C0D5]",below the threshold
2,"IPLDGETEEL [MYOZ1, Q9NP98]",below the threshold

# Molecular target: IL16_1, Q14005
# Assay: holdup assay
# Set-up: key: below the threshold = too weak to quantify, mostly under pKd 3.1 to 4
# Conditions: plain residues with an end cap or a label only (N-terminal biotin on a linker: ado-ado)
# Chain of IL16_1, Q14005 (Q14005 210-306): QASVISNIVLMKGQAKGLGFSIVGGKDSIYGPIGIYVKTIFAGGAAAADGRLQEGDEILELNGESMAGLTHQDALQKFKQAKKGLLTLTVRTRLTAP
row,Binder,pKd
1,"PKRSFIESNV [TANC1, Q9C0D5]",4.83
2,"IPLDGETEEL [MYOZ1, Q9NP98]",below the threshold

# Molecular target: Inadl_10, Q8NI35
# Assay: holdup assay
# Set-up: key: below the threshold = too weak to quantify, mostly under pKd 3.1 to 4
# Conditions: plain residues with an end cap or a label only (N-terminal biotin on a linker: ado-ado)
# Chain of Inadl_10, Q8NI35 (Q8NI35 1673-1763): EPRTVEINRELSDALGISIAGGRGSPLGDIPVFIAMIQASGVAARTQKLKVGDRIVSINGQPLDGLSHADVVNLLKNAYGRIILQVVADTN
row,Binder,pKd
1,"PKRSFIESNV [TANC1, Q9C0D5]",below the threshold
2,"IPLDGETEEL [MYOZ1, Q9NP98]",below the threshold

# Molecular target: Inadl_5, Q8NI35
# Assay: holdup assay
# Set-up: key: below the threshold = too weak to quantify, mostly under pKd 3.1 to 4
# Conditions: plain residues with an end cap or a label only (N-terminal biotin on a linker: ado-ado)
# Chain of Inadl_5, Q8NI35 (Q8NI35 673-780): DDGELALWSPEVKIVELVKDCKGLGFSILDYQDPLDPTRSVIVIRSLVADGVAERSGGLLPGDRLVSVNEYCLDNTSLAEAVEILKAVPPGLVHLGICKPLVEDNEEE
row,Binder,pKd
1,"PKRSFIESNV [TANC1, Q9C0D5]",below the threshold
2,"IPLDGETEEL [MYOZ1, Q9NP98]",below the threshold

# Molecular target: Inadl_9, Q8NI35
# Assay: holdup assay
# Set-up: key: below the threshold = too weak to quantify, mostly under pKd 3.1 to 4
# Conditions: plain residues with an end cap or a label only (N-terminal biotin on a linker: ado-ado)
# Chain of Inadl_9, Q8NI35 (Q8NI35 1530-1615): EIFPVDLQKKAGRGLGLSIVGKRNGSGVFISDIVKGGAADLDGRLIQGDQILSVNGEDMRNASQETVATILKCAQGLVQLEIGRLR
row,Binder,pKd
1,"PKRSFIESNV [TANC1, Q9C0D5]",below the threshold
2,"IPLDGETEEL [MYOZ1, Q9NP98]",below the threshold

# Molecular target: LAP2, Q96RT1
# Assay: holdup assay
# Set-up: key: below the threshold = too weak to quantify, mostly under pKd 3.1 to 4
# Conditions: plain residues with an end cap or a label only (N-terminal biotin on a linker: ado-ado)
# Chain of LAP2, Q96RT1 (Q96RT1 other isoform, or with tags, fused parts or gaps): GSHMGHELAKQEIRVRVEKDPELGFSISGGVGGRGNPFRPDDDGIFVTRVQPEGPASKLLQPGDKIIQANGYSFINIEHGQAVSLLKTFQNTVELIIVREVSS
row,Binder,pKd
1,"PKRSFIESNV [TANC1, Q9C0D5]",5.27
2,"IPLDGETEEL [MYOZ1, Q9NP98]",below the threshold

# Molecular target: T7, LIN7B, Q9HAP6
# Assay: holdup assay
# Set-up: key: below the threshold = too weak to quantify, mostly under pKd 3.1 to 4
# Conditions: plain residues with an end cap or a label only (N-terminal biotin on a linker: ado-ado)
row,Binder,pKd
1,"PKRSFIESNV [TANC1, Q9C0D5]",below the threshold
2,"IPLDGETEEL [MYOZ1, Q9NP98]",below the threshold

# Molecular target: T8, MPDZ_10, O75970
# Assay: holdup assay
# Set-up: key: below the threshold = too weak to quantify, mostly under pKd 3.1 to 4
# Conditions: plain residues with an end cap or a label only (N-terminal biotin on a linker: ado-ado)
row,Binder,pKd
1,"PKRSFIESNV [TANC1, Q9C0D5]",below the threshold
2,"IPLDGETEEL [MYOZ1, Q9NP98]",below the threshold

# Molecular target: NHERF4_4, Q86UT5
# Assay: holdup assay
# Set-up: key: below the threshold = too weak to quantify, mostly under pKd 3.1 to 4
# Conditions: plain residues with an end cap or a label only (N-terminal biotin on a linker: ado-ado)
# Chain of NHERF4_4, Q86UT5 (Q86UT5 464-550): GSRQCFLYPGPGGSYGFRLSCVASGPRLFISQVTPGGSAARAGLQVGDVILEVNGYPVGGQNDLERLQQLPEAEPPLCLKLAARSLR
row,Binder,pKd
1,"PKRSFIESNV [TANC1, Q9C0D5]",3.83
2,"IPLDGETEEL [MYOZ1, Q9NP98]",below the threshold

# Molecular target: NOS1, P29475
# Assay: holdup assay
# Set-up: key: below the threshold = too weak to quantify, mostly under pKd 3.1 to 4
# Conditions: plain residues with an end cap or a label only (N-terminal biotin on a linker: ado-ado)
# Chain of NOS1, P29475 (P29475 9-101): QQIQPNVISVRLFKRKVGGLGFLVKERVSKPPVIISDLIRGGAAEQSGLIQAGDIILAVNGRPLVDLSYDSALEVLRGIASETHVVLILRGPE
row,Binder,pKd
1,"PKRSFIESNV [TANC1, Q9C0D5]",below the threshold
2,"IPLDGETEEL [MYOZ1, Q9NP98]",below the threshold

# Molecular target: T9, PARD3B_1, Q8TEW8
# Assay: holdup assay
# Set-up: key: below the threshold = too weak to quantify, mostly under pKd 3.1 to 4
# Conditions: plain residues with an end cap or a label only (N-terminal biotin on a linker: ado-ado)
row,Binder,pKd
1,"PKRSFIESNV [TANC1, Q9C0D5]",below the threshold
2,"IPLDGETEEL [MYOZ1, Q9NP98]",below the threshold

# Molecular target: T10, PTPN13_1, Q12923
# Assay: holdup assay
# Set-up: key: below the threshold = too weak to quantify, mostly under pKd 3.1 to 4
# Conditions: plain residues with an end cap or a label only (N-terminal biotin on a linker: ado-ado)
row,Binder,pKd
1,"PKRSFIESNV [TANC1, Q9C0D5]",below the threshold
2,"IPLDGETEEL [MYOZ1, Q9NP98]",below the threshold

# Molecular target: T11, RHPN1, Q8TCX5
# Assay: holdup assay
# Set-up: key: below the threshold = too weak to quantify, mostly under pKd 3.1 to 4
# Conditions: plain residues with an end cap or a label only (N-terminal biotin on a linker: ado-ado)
row,Binder,pKd
1,"PKRSFIESNV [TANC1, Q9C0D5]",4.38
2,"IPLDGETEEL [MYOZ1, Q9NP98]",below the threshold

# Molecular target: T12, SYNJ2BP, P57105
# Assay: holdup assay
# Set-up: key: below the threshold = too weak to quantify, mostly under pKd 3.1 to 4
# Conditions: plain residues with an end cap or a label only (N-terminal biotin on a linker: ado-ado)
row,Binder,pKd
1,"PKRSFIESNV [TANC1, Q9C0D5]",5.28
2,"IPLDGETEEL [MYOZ1, Q9NP98]",below the threshold

# Molecular target: TJP1_3, Q07157
# Assay: holdup assay
# Set-up: key: below the threshold = too weak to quantify, mostly under pKd 3.1 to 4
# Conditions: plain residues with an end cap or a label only (N-terminal biotin on a linker: ado-ado)
# Chain of TJP1_3, Q07157 (Q07157 416-512): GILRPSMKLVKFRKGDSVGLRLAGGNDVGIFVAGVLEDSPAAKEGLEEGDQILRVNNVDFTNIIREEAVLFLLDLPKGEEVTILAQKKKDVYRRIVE
row,Binder,pKd
1,"PKRSFIESNV [TANC1, Q9C0D5]",below the threshold
2,"IPLDGETEEL [MYOZ1, Q9NP98]",below the threshold

# Molecular target: TJP2_1, Q9UDY2
# Assay: holdup assay
# Set-up: key: below the threshold = too weak to quantify, mostly under pKd 3.1 to 4
# Conditions: plain residues with an end cap or a label only (N-terminal biotin on a linker: ado-ado)
# Chain of TJP2_1, Q9UDY2 (Q9UDY2 24-128): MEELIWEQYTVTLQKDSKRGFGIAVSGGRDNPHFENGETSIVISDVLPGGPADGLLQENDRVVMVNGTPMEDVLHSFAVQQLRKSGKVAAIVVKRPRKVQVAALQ
row,Binder,pKd
1,"PKRSFIESNV [TANC1, Q9C0D5]",below the threshold
2,"IPLDGETEEL [MYOZ1, Q9NP98]",below the threshold

# Reference: publication PMC9482650, “Quantitative fragmentomics allow affinity mapping of interactomes” (Nature Communications, 2022)
